{"source": "patent US20230140224A1", "about": "(APRILBIO, published 2023)", "binders": {"B1": {"name": "FL335 Fab antibody fragment (Fab, V domains shown)", "VH": "QVQLVQSGGGPVKPGGSLRLSCAASGFMFRAYSMNWVRQAPGKGLEWVSSISSSGRYIHYADSVKGRFTISRDNAKNSLYLQMNSLRAEDTAVYYCARETVMAGKALDYWGQGTLVTVSS", "VL": "DIVLTQSPGTLSLSPGETATLSCRASQSVGSNLAWYQQKPGQAPRLLIYGASTGATGVPARFSGSRSGTDFTLTITSLQPEDFATYYCQQYYSFLAKTFGQGTQLEIKR", "notes": "also called FL355 Fab antibody fragment; feline chimeric antibody fragment"}}, "target": "T1, human serum albumin (human, UniProt P02768 25-609)", "T1 construct": "also called HSA; human albumin", "T1 sequence (P02768 25-609 limits assumed)": "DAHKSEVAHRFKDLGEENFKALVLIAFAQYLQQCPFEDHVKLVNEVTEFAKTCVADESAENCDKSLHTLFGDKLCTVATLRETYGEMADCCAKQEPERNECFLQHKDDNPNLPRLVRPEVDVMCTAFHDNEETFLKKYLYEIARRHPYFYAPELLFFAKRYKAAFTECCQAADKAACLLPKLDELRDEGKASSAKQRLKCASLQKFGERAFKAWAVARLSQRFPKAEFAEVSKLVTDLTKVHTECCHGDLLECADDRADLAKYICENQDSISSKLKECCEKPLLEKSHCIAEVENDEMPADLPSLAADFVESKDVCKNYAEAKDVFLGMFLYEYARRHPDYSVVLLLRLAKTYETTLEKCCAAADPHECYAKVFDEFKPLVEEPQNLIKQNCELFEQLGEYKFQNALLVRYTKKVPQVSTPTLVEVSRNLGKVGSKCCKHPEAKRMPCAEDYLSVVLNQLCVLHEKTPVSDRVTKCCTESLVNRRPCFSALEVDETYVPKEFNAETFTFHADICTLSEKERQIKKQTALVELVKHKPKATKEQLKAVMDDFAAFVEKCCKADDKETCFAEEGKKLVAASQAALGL", "test": "ELISA, albumin coated on plate, Fab in solution", "data": [{"binder": "B1", "values": [{"measurement": "binding result", "value": "binds"}]}]}
